T1: DLG3_3, Q92796
T1 sequence (Q92796 374-475, limits assumed, looked up): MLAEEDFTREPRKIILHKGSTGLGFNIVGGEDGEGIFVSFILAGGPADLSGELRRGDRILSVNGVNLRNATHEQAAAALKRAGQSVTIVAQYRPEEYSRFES

T2: GRIP1_4, Q9Y3R0
T2 sequence (Q9Y3R0 467-571, limits assumed, looked up): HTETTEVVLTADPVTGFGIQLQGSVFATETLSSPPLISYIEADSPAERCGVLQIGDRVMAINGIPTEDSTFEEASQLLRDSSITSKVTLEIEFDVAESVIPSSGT

T3: LIN7C, Q9NUP9
T3 sequence (Q9NUP9 88-185, limits assumed, looked up): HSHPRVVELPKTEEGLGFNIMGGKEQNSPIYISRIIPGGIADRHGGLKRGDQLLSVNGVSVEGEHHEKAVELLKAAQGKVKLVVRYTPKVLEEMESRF

T4: MPDZ_12, O75970
T4 sequence (O75970 1857-1958, limits assumed, looked up): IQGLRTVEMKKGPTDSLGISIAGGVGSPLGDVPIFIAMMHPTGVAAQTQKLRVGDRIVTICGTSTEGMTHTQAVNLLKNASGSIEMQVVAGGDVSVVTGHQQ

T5: PARD3B_1, Q8TEW8
T5 sequence (Q8TEW8 196-299, limits assumed, looked up): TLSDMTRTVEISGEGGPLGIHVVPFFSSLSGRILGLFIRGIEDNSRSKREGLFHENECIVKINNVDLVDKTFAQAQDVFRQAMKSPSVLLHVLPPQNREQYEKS

T6: RHPN1, Q8TCX5
T6 sequence (Q8TCX5 508-602, limits assumed, looked up): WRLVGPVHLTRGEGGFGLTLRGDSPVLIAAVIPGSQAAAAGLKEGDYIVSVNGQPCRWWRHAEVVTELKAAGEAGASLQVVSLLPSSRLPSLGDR

T7: SHANK1, Q9Y566
T7 sequence (Q9Y566 658-767, limits assumed, looked up): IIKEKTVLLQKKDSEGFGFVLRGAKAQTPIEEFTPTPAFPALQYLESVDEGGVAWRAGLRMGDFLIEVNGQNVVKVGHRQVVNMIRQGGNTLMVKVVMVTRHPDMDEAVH

T8: SIPA1L2, Q9P2F8
T8 sequence (Q9P2F8 945-1036, limits assumed, looked up): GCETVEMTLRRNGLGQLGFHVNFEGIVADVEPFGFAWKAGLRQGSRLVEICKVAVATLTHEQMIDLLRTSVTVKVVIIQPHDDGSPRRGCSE


Key:
Test in all cases: holdup assay
Parameters in all cases: key: below the threshold = too weak to quantify, mostly under pKd 3.1 to 4
Conditions in all cases: plain residues with an end cap or a label only (N-terminal biotin on a linker: ado-ado)
ARHGEF12, Q9NZN5-2 = target: ARHGEF12, Q9NZN5-2
DLG1_2, Q12959 = target: DLG1_2, Q12959
DLG3_3, Q92796 = target: T1, DLG3_3, Q92796
FRMPD2_1, Q68DX3 = target: FRMPD2_1, Q68DX3
FRMPD3, Q5JV73 = target: FRMPD3, Q5JV73
GORASP1, Q9BQQ3 = target: GORASP1, Q9BQQ3
GRID2IP_2, A4D2P6 = target: GRID2IP_2, A4D2P6
GRIP1_4, Q9Y3R0 = target: T2, GRIP1_4, Q9Y3R0
GRIP2_4, Q9C0E4 = target: GRIP2_4, Q9C0E4
HTRA2, O43464 = target: HTRA2, O43464
Inadl_1, Q8NI35 = target: Inadl_1, Q8NI35
Inadl_2, Q8NI35 = target: Inadl_2, Q8NI35
Inadl_6, Q8NI35 = target: Inadl_6, Q8NI35
LDB3, O75112 = target: LDB3, O75112
LIN7C, Q9NUP9 = target: T3, LIN7C, Q9NUP9
LNX1_3, Q8TBB1 = target: LNX1_3, Q8TBB1
MAGI2_2, Q86UL8 = target: MAGI2_2, Q86UL8
MAGI2_6, Q86UL8 = target: MAGI2_6, Q86UL8
MPDZ_12, O75970 = target: T4, MPDZ_12, O75970
NHERF2_2, Q15599 = target: NHERF2_2, Q15599
NHERF4_1, Q86UT5-2 = target: NHERF4_1, Q86UT5-2
NHERF4_4, Q86UT5 = target: NHERF4_4, Q86UT5
PARD3B_1, Q8TEW8 = target: T5, PARD3B_1, Q8TEW8
PTPN3, P26045 = target: PTPN3, P26045
RHPN1, Q8TCX5 = target: T6, RHPN1, Q8TCX5
SCRIB_3, Q14160 = target: SCRIB_3, Q14160
SHANK1, Q9Y566 = target: T7, SHANK1, Q9Y566
SIPA1L2, Q9P2F8 = target: T8, SIPA1L2, Q9P2F8
SNX27, Q96L92 = target: SNX27, Q96L92

Chain of SCRIB_3, Q14160 (Q14160 999-1103): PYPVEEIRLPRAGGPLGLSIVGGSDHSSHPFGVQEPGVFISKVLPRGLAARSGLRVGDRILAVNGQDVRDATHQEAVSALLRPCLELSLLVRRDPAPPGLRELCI
Chain of MAGI2_6, Q86UL8 (Q86UL8 1141-1229): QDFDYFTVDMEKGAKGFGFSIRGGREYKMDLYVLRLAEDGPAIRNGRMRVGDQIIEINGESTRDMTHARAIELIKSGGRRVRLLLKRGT
Chain of FRMPD3, Q5JV73 (Q5JV73 12-100): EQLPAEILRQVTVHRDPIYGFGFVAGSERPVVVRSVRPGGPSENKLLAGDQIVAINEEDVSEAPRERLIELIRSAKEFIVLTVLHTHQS
Chain of NHERF4_1, Q86UT5-2 (Q86UT5 other isoform, or with tags, fused parts or gaps): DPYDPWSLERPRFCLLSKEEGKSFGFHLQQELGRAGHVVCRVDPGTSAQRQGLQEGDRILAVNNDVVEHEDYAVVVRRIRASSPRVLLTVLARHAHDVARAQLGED
Chain of DLG1_2, Q12959 (Q12959 314-412): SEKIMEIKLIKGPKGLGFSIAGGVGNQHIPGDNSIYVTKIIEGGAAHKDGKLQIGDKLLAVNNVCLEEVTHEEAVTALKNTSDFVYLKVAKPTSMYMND
Chain of Inadl_6, Q8NI35 (Q8NI35 1058-1167): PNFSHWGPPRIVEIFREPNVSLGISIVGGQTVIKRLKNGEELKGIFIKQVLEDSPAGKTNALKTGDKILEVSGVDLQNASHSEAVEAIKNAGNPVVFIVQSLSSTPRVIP
Chain of FRMPD2_1, Q68DX3 (Q68DX3 770-861): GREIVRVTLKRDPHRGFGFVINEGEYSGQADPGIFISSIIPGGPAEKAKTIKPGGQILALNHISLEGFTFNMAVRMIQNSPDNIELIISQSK
Chain of LNX1_3, Q8TBB1 (Q8TBB1 500-596): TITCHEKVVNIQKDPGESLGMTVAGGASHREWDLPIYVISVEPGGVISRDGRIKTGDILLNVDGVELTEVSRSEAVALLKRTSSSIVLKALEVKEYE
Chain of NHERF2_2, Q15599 (Q15599 142-238): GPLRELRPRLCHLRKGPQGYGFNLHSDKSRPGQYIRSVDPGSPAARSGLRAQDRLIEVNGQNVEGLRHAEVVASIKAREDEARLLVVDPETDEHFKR
Chain of ARHGEF12, Q9NZN5-2 (Q9NZN5 other isoform, or with tags, fused parts or gaps): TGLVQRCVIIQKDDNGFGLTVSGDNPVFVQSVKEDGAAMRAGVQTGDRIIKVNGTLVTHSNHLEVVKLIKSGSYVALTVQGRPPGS
Chain of MAGI2_2, Q86UL8 (Q86UL8 410-522): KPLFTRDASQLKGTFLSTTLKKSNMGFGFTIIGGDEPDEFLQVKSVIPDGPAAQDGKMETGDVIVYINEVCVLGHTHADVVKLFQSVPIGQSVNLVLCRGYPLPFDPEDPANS
Chain of GRIP2_4, Q9C0E4 (Q9C0E4 446-548): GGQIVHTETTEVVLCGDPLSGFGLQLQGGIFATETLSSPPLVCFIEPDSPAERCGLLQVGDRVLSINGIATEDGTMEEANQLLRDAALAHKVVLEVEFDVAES
Chain of GORASP1, Q9BQQ3 (Q9BQQ3 1-208): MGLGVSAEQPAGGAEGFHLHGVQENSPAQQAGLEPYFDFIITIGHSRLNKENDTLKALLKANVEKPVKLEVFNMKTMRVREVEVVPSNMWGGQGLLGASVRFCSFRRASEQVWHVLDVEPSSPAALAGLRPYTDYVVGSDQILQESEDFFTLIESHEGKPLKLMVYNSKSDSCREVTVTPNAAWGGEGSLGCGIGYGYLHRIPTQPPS
Chain of NHERF4_4, Q86UT5 (Q86UT5 464-550): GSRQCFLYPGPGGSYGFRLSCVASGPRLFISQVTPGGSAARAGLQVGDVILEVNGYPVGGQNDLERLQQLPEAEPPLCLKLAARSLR
Chain of Inadl_2, Q8NI35 (Q8NI35 238-335): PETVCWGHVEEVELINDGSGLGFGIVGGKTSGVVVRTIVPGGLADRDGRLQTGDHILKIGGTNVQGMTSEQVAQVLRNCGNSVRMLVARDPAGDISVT
Chain of LDB3, O75112 (O75112 1-94): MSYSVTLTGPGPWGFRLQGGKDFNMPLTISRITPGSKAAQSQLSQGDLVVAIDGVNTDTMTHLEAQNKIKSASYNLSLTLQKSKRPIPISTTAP
Chain of GRID2IP_2, A4D2P6 (A4D2P6 272-370): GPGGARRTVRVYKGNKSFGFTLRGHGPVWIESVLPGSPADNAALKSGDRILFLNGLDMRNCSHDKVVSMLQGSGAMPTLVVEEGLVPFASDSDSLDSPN
Chain of PTPN3, P26045 (P26045 505-587): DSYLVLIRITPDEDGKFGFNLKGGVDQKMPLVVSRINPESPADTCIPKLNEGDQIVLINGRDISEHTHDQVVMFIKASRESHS
Chain of Inadl_1, Q8NI35 (Q8NI35 113-229): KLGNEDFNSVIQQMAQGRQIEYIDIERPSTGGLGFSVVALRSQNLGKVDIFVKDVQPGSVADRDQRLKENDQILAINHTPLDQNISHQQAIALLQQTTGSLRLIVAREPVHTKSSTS
Chain of HTRA2, O43464 (O43464 355-458): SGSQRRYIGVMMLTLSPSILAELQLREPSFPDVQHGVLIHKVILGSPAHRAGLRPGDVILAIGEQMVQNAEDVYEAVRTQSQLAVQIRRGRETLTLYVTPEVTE

Binder | pKd (ARHGEF12, Q9NZN5-2) | pKd (DLG1_2, Q12959) | pKd (DLG3_3, Q92796) | pKd (FRMPD2_1, Q68DX3) | pKd (FRMPD3, Q5JV73) | pKd (GORASP1, Q9BQQ3) | pKd (GRID2IP_2, A4D2P6) | pKd (GRIP1_4, Q9Y3R0) | pKd (GRIP2_4, Q9C0E4) | pKd (HTRA2, O43464) | pKd (Inadl_1, Q8NI35) | pKd (Inadl_2, Q8NI35) | pKd (Inadl_6, Q8NI35) | pKd (LDB3, O75112) | pKd (LIN7C, Q9NUP9) | pKd (LNX1_3, Q8TBB1) | pKd (MAGI2_2, Q86UL8) | pKd (MAGI2_6, Q86UL8) | pKd (MPDZ_12, O75970) | pKd (NHERF2_2, Q15599) | other results
SARSRLSSNL [HCN2, Q9UL51] | 4.66 | below the threshold | below the threshold | below the threshold | below the threshold | below the threshold | 4.37 | below the threshold | below the threshold | below the threshold | below the threshold | below the threshold | below the threshold | below the threshold | below the threshold | below the threshold | 3.71 | below the threshold | below the threshold | 4.44 | pKd (NHERF4_1, Q86UT5-2): 3.96; pKd (NHERF4_4, Q86UT5): below the threshold; pKd (PARD3B_1, Q8TEW8): 3.71; pKd (PTPN3, P26045): 4.16; pKd (RHPN1, Q8TCX5): 3.92; pKd (SCRIB_3, Q14160): 4.32; pKd (SHANK1, Q9Y566): 4.09; pKd (SIPA1L2, Q9P2F8): below the threshold; pKd (SNX27, Q96L92): 4.3
EALLQMESVA [CAVIN3, Q969G5] | 3.63 | below the threshold | below the threshold | 3.62 | below the threshold | below the threshold | below the threshold | below the threshold | below the threshold | below the threshold | below the threshold | below the threshold | below the threshold | below the threshold | below the threshold | below the threshold | below the threshold | below the threshold | below the threshold | below the threshold | pKd (NHERF4_1, Q86UT5-2): 3.59; pKd (NHERF4_4, Q86UT5): below the threshold; pKd (PARD3B_1, Q8TEW8): below the threshold; pKd (PTPN3, P26045): below the threshold; pKd (RHPN1, Q8TCX5): 3.69; pKd (SCRIB_3, Q14160): below the threshold; pKd (SHANK1, Q9Y566): below the threshold; pKd (SIPA1L2, Q9P2F8): below the threshold; pKd (SNX27, Q96L92): 4.13
EKKTLIGIKL [GOT1L1, Q8NHS2] | 3.64 | below the threshold | below the threshold | 3.88 | below the threshold | below the threshold | below the threshold | below the threshold | below the threshold | below the threshold | below the threshold | below the threshold | below the threshold | below the threshold | below the threshold | below the threshold | 3.52 | below the threshold | below the threshold | 3.64 | pKd (NHERF4_1, Q86UT5-2): 3.81; pKd (NHERF4_4, Q86UT5): 3.5; pKd (PARD3B_1, Q8TEW8): 4.74; pKd (PTPN3, P26045): below the threshold; pKd (RHPN1, Q8TCX5): below the threshold; pKd (SCRIB_3, Q14160): below the threshold; pKd (SHANK1, Q9Y566): below the threshold; pKd (SIPA1L2, Q9P2F8): below the threshold; pKd (SNX27, Q96L92): below the threshold

Now from value to binder, other results behind:

pKd (ARHGEF12, Q9NZN5-2) | pKd (DLG1_2, Q12959) | pKd (DLG3_3, Q92796) | pKd (FRMPD2_1, Q68DX3) | pKd (FRMPD3, Q5JV73) | pKd (GORASP1, Q9BQQ3) | pKd (GRID2IP_2, A4D2P6) | pKd (GRIP1_4, Q9Y3R0) | pKd (GRIP2_4, Q9C0E4) | pKd (HTRA2, O43464) | pKd (Inadl_1, Q8NI35) | pKd (Inadl_2, Q8NI35) | pKd (Inadl_6, Q8NI35) | pKd (LDB3, O75112) | pKd (LIN7C, Q9NUP9) | pKd (LNX1_3, Q8TBB1) | pKd (MAGI2_2, Q86UL8) | pKd (MAGI2_6, Q86UL8) | pKd (MPDZ_12, O75970) | pKd (NHERF2_2, Q15599) | Binder | other results
3.63 | 3.57 | below the threshold | below the threshold | 3.56 | 3.57 | 3.84 | below the threshold | below the threshold | below the threshold | below the threshold | below the threshold | 3.81 | 3.67 | below the threshold | below the threshold | 3.55 | 4.26 | below the threshold | 5.05 | PRAEAEDSFL [PDGFRB, P09619] | pKd (NHERF4_1, Q86UT5-2): 3.89; pKd (NHERF4_4, Q86UT5): 4.03; pKd (PARD3B_1, Q8TEW8): 4.55; pKd (PTPN3, P26045): 4.45; pKd (RHPN1, Q8TCX5): 4.23; pKd (SCRIB_3, Q14160): 4.06; pKd (SHANK1, Q9Y566): 3.51; pKd (SIPA1L2, Q9P2F8): below the threshold; pKd (SNX27, Q96L92): 4.71
3.5 | below the threshold | below the threshold | below the threshold | below the threshold | below the threshold | below the threshold | below the threshold | below the threshold | below the threshold | below the threshold | below the threshold | below the threshold | below the threshold | below the threshold | below the threshold | below the threshold | below the threshold | below the threshold | 3.91 | IKAIVDLTGL [TRAF2, Q12933] | pKd (NHERF4_1, Q86UT5-2): 3.76; pKd (NHERF4_4, Q86UT5): below the threshold; pKd (PARD3B_1, Q8TEW8): below the threshold; pKd (PTPN3, P26045): 3.91; pKd (RHPN1, Q8TCX5): below the threshold; pKd (SCRIB_3, Q14160): below the threshold; pKd (SHANK1, Q9Y566): 3.49; pKd (SIPA1L2, Q9P2F8): below the threshold; pKd (SNX27, Q96L92): 3.51

From PMC9482650, “Quantitative fragmentomics allow affinity mapping of interactomes” (Nature Communications, 2022)
